Data taken from US20240366761A1 (LEGEND BIOTECH IRELAND, published 2024).

B1: TGB23-2 fusion protein (TGFβ receptor and IL-23 receptor fusion protein) (receptor)
chain 1: TIPPHVQKSVNNDMIVTDNNGAVKFPQLCKFCDVRFSTCDNQKSCMSNCSITSICEKPQEVCVAVWRKNDENITLETVCHDPKLPYHDFILEDAASPKCIMKEKKKPGETFFMCSCSSDECNDNIIFSEEYNTSNPDLLLVIFQVTGISLLPPLGVAISVIIIFYCYRVNRQNRSFRTGIKRRILLLIPKWLYEDIPNMKNSNVVKMLQENSELMNNNSSEQVLYVDPMITEIKEIFIPEHKPTDYKKENTGPLETRDYPQNSLFDNTTVVYIPDLNTGYKPQISNFLPEGSHLSNNNEITSLTLKPPVDSLDSGNNPRLQKHPNFAFSVSSVNSLSNTIFLGELSLILNQGECSSPDIQNSVEEETTMLLENDSPSETIPEQTLLPDEFVSCLGIVNEELPSINTYFPQNILESHFNRISLLEK
chain 2: LQCFCHLCTKDNFTCVTDGLCFVSVTETTDKVIHNSMCIAEIDLIPRDRPFVCAPSSKTGSVTTTYCCNQDHCNKIELPTTVKSSPGLGPVELAAVIAGPVCFVCISLMLMVYICHNRTVNRAARHLCPPLPTPCASSAIEFPGGKETWQWINPVDFQEEASLQEALVVEMSWDKGERTEPLEKTELPEGAPELALDTELSLEDGDRCKAKM
B2: TGB23-3 fusion protein (TGFβ receptor and IL-23 receptor fusion protein) (receptor)
chain 1: B1 chain 2
chain 2: B1 chain 1
B3: TGB23-4 fusion protein (TGFβ receptor and IL-23 receptor fusion protein) (receptor)
chain 1: LQCFCHLCTKDNFTCVTDGLCFVSVTETTDKVIHNSMCIAEIDLIPRDRPFVCAPSSKTGSVTTTYCCNQDHCNKIELPTTVKSSPGLGPVELVPQVTSKAFQHDTWNSGLTVASISTGHLTSDNRGDIGLLLGMIVFAVMLSILSLIGIFNRSFRTGIKRRILLLIPKWLYEDIPNMKNSNVVKMLQENSELMNNNSSEQVLYVDPMITEIKEIFIPEHKPTDYKKENTGPLETRDYPQNSLFDNTTVVYIPDLNTGYKPQISNFLPEGSHLSNNNEITSLTLKPPVDSLDSGNNPRLQKHPNFAFSVSSVNSLSNTIFLGELSLILNQGECSSPDIQNSVEEETTMLLENDSPSETIPEQTLLPDEFVSCLGIVNEELPSINTYFPQNILESHFNRISLLEK
chain 2: TIPPHVQKSVNNDMIVTDNNGAVKFPQLCKFCDVRFSTCDNQKSCMSNCSITSICEKPQEVCVAVWRKNDENITLETVCHDPKLPYHDFILEDAASPKCIMKEKKKPGETFFMCSCSSDECNDNIIFSEEYNTSNPDLLLVIFQVSDWLIFFASLGSFLSILLVGVLGYLGLNRAARHLCPPLPTPCASSAIEFPGGKETWQWINPVDFQEEASLQEALVVEMSWDKGERTEPLEKTELPEGAPELALDTELSLEDGDRCKAKM
B4: TGB23-5 fusion protein (TGFβ receptor and IL-23 receptor fusion protein) (receptor)
chain 1: TIPPHVQKSVNNDMIVTDNNGAVKFPQLCKFCDVRFSTCDNQKSCMSNCSITSICEKPQEVCVAVWRKNDENITLETVCHDPKLPYHDFILEDAASPKCIMKEKKKPGETFFMCSCSSDECNDNIIFSEEYNTSNPDLLLVIFQVPQVTSKAFQHDTWNSGLTVASISTGHLTSDNRGDIGLLLGMIVFAVMLSILSLIGIFNRSFRTGIKRRILLLIPKWLYEDIPNMKNSNVVKMLQENSELMNNNSSEQVLYVDPMITEIKEIFIPEHKPTDYKKENTGPLETRDYPQNSLFDNTTVVYIPDLNTGYKPQISNFLPEGSHLSNNNEITSLTLKPPVDSLDSGNNPRLQKHPNFAFSVSSVNSLSNTIFLGELSLILNQGECSSPDIQNSVEEETTMLLENDSPSETIPEQTLLPDEFVSCLGIVNEELPSINTYFPQNILESHFNRISLLEK
chain 2: LQCFCHLCTKDNFTCVTDGLCFVSVTETTDKVIHNSMCIAEIDLIPRDRPFVCAPSSKTGSVTTTYCCNQDHCNKIELPTTVKSSPGLGPVELVSDWLIFFASLGSFLSILLVGVLGYLGLNRAARHLCPPLPTPCASSAIEFPGGKETWQWINPVDFQEEASLQEALVVEMSWDKGERTEPLEKTELPEGAPELALDTELSLEDGDRCKAKM
B5: TGB23-6 fusion protein (TGFβ receptor and IL-23 receptor fusion protein) (receptor)
chain 1: B4 chain 2
chain 2: B4 chain 1

molecular target: recombinant human TGFβ1 (human, UniProt P01137 279-390); test: cell-based or functional assay
Sequence (P01137 279-390 limits assumed): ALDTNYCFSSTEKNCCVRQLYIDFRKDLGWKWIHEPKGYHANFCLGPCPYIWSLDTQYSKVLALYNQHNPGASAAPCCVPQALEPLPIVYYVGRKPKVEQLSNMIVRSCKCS

T cell number from day 0 to day 5 after transduction, culture with 20 ng/mL TGFβ1, > 4 fold:
B1, B2, B3, B4, B5
